Laboratory results reported in patent US20210277104A1 (Janssen / Centocor, published 2021).
Substitutions are numbered along the chain they refer to. In names and notes the source's numbering stands.

B1: TNV148 (antibody, V domains shown)
VH: QVQLVESGGGVVQPGRSLRLSCAASGFIFSSYAMHWVRQAPGNGLEWVAFMSYDGSNKKYADSVKGRFTISRDNPKNTLYLQMNSLRAEDTAVYYCARDRGIAAGGNYYYYGMDVWGQGTTVTVSS
VL: EIVLTQSPATLSLSPGERATLSCRASQSVYSYLAWYQQKPGQAPRLLIYDASNRATGIPARFSGSGSGTDFTLTISSLEPEDFAVYYCQQRSNWPPFTFGPGTKVDIKR
B2: TNV86 (antibody, human IgG1, V domains shown)
VH: B1 VH
VL: EIVLTQSPATLSLSPGERATLSCRASQSVYSYLAWYQQKPGQAPRLLIYDASNRATGIPARFSGSGSGTDFTLTISSLEPEDFAVYYCQQRSNWPPFTFGPGTKVDIK
notes: Totally human IgG1 kappa from hybridoma, tested as hybridoma supernatant; Variable regions identical to TNV148; also called GenTNV86.14.34; C417A
B3: TNV196 (antibody, V domains shown)
VH: B1 VH with I28T, N43K, M51I, Y60S, I70V, P75S, Y80F, Y94F, A103G
VL: B2 VL

What was measured:
recombinant human TNFα [1] = molecular target: T1, recombinant human TNFα (human, UniProt P01375 77-233, 125I-labeled in the receptor binding inhibition assay; unlabeled in the EIA); experiment: cell-based or functional assay
recombinant human TNFα [2] = molecular target: T1, recombinant human TNFα; experiment: inhibition of 125I-TNFα binding to plate-coated p55-sf2; reference TNV118 and TNV14
Protocol: 50:1 of p55-sf2 at 0.5:g/ml in PBS was added to Optiplates to coat the wells during a one-hour incubation at 37° C. Serial dilutions of the eight TNV cell supernatants were prepared in 96-well round-bottom plates using PBS/0.1% BSA as diluent. […] The mixture was preincubated for one hour at RT. […] After 2 hrs at RT, Optiplates were washed three times with PBS-Tween. […] of Microscint-20 was added and the cpm bound determined using the TopCount […].
The concentrations of the TNV mAbs in their respective cell supernatants were first determined by standard ELISA analysis for human IgG.

recombinant human TNFα [3] = molecular target: T1, recombinant human TNFα; experiment: Competition radioligand assay: inhibition of 5 ng/ml 125I-TNFα binding to plate-coated p55-sf2

Row | Binder | neutralizing TNFα bioactivity (recombinant human TNFα [1]) | fold better at blocking TNF binding than TNV118 and TNV14 (recombinant human TNFα [2]) | IC50 (read off the curve) (recombinant human TNFα [3])
1 | B1 | 4 fold | ~4 fold | ~4 ng/mL
2 | B2 | – | ~4 fold | –
3 | B3 | 4 fold | – | ~4 ng/mL
